According to PMC8240853 (The Journal of Cell Biology, 2021):
Several values for one entry are separate records, joined by “and”; a condition that tells them apart may be missing. Equal values may be shown once. One block for each molecule: values may come before it.

Experiments:
[1] = target: microtubules of porcine brain tubulin (porcine) (UniProt P02550); experiment: binding to microtubules in vitro
WDR62 WD40 domain, 1-790 = WDR62 WD40 domain, 1-790 (UniProt O43379); experiment: streptavidin pull-down, GFP Western blot; settings: reference: wild-type C3 fragment; sites T1053
Strep-p80 WD = Strep-p80 WD (UniProt Q8BG40 1-315); experiment: pull-down
Strep-p80 WD, sequence (Q8BG40 1-315): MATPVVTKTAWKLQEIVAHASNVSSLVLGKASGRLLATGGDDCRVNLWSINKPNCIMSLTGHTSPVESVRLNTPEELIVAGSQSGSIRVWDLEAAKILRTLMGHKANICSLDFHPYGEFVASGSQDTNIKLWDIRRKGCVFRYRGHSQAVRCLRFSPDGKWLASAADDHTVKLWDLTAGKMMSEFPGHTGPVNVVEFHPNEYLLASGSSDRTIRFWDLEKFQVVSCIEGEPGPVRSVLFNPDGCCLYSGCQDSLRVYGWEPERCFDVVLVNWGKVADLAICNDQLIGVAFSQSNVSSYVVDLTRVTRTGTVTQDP

Strep-TagBFP-TPX2 = target: T1, Strep-TagBFP-TPX2 (human, UniProt Q9ULW0-1 1-747); experiment: recruitment to microtubules in vitro
T1 sequence: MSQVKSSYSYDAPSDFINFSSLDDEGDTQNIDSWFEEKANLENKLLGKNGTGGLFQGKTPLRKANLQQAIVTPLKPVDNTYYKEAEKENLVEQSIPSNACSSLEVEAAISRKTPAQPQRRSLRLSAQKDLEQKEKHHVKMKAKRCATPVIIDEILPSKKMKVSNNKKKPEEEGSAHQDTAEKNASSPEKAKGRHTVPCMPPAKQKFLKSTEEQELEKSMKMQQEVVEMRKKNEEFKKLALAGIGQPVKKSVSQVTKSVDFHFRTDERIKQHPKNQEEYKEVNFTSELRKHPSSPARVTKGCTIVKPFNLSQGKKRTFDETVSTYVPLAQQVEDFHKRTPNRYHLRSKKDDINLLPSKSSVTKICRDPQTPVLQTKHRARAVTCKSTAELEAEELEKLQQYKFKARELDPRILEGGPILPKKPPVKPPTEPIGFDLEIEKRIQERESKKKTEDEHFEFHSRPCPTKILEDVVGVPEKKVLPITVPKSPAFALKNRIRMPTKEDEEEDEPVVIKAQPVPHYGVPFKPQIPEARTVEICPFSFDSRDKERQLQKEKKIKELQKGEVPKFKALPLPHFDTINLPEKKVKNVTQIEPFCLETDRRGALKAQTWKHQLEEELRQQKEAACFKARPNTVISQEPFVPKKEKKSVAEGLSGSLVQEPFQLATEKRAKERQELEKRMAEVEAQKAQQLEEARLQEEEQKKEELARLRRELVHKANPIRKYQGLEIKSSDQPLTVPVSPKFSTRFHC

WDR62 FL WT-GFP-Strep = WDR62 FL WT-GFP-Strep (human, UniProt O43379-4 1-1523); experiment: recruitment to microtubules in vitro

Molecule: p60/TagBFP-p80 (from UniProt O43379-4;Q8BG40) (complex)
breakage frequency of WDR62 N2-decorated curved MTs in live MRC5 cells (WDR62-N2-GFP (human)): 95%

Molecule: p60/TagBFP-p80 R615A (from UniProt O43379-4;Q8BG40) (complex)
breakage frequency of WDR62 N2-decorated curved MTs in live MRC5 cells (WDR62-N2-GFP (human)): 95%

Molecule: LAFHAKRSYQPHGRWAERAGQEPLKTILDAQDLDCYFTPMKPES (domain or fragment) [trxA-6xHis-WDR62 M1]
binding result (Strep-p80 WD): binds

B1: Strep-GFP–Aurora A (natural protein)
chain: MDRSKENCISGPVKATAPVGGPKRVLVTQQFPCQNPLPVNSGQAQRVLCPSNSSQRIPLQAQKLVSSHKPVQNQKQKQLQATSVPHPVSRPLNNTQKSKQPLPSAPENNPEEELASKQKNEESKKRQWALEDFEIGRPLGKGKFGNVYLAREKQSKFILALKVLFKAQLEKAGVEHQLRREVEIQSHLRHPNILRLYGYFHDATRVYLILEYAPLGTVYRELQKLSKFDEQRTATYITELANALSYCHSKRVIHRDIKPENLLLGSAGELKIADFGWSVHAPSSRRTTLCGTLDYLPPEMIEGRMHDEKVDLWSLGVLCYEFLVGKPPFEANTYQETYKRISRVEFTFPDFVTEGARDLISRLLKHNPSQRPMLREVLEHPWITANSSKPSNCQNKESASKQS
binding result (Strep-TagBFP-TPX2): binds

B2: TPX2/TagBFP–Aurora A complex (complex)
chain 1: T1 sequence
chain 2: B1 chain
binding result (WDR62 FL WT-GFP-Strep): binds

The remaining lines, values ahead:

fold affinity for GMPCPP-stabilized MTs against the FL protein [1]: 4 fold and 5 fold
Molecule: WDR62 WD-GFP-Strep (from UniProt O43379-4 1-790) (domain or fragment)

binding against the reference (WDR62 WD40 domain, 1-790): lost
Molecule: WDR62 C3, 1001-1523 (from UniProt O43379) C3 T1053A
